In US12194082B2, “Compositions and methods for treatment of homocystinuria” (THE REGENTS OF THE UNIVERSITY OF COLORADO, priority 2016, dated 2025):

Experiments:
Hcy, Cys = experiment: Plasma metabolites in the I278T facial alopecia study; assay type: in vivo, I278T mice; settings: 3 times per week, 24 hours after injection
Method: Plasma metabolites homocysteine, cystathionine and cysteine were determined by stable-isotope-dilution liquid chromatography mass spectrometry as previously described in (Allen et al., 1993, Metabolism, 42: 1448-1460). Measurements of total non-protein bound homocysteine and other aminothiols as well as of amino acids in tissue were performed as described in (Maclean et al., 2010b. Mol. Genet. Metab. 101, 153-162). Metabolites were determined by stable-isotope-dilution liquid chromatography mass spectrometry.
The second group (n=3; 2 males, 1 female) was continuously injected with 7.5 mg/kg of 200MA0B PEG-htCBS C15S administered subcutaneously from 3 W of age until 41 weeks of age. Weight was initially monitored weekly. Physical look was recorded before the experiment and was monitored weekly or bi-weekly after the initial 6 W injection regimen. Metabolite levels were checked before the experiment and 24 hours after the last injection of initial 6 W injection regiment and then followed weekly or bi-weekly.
The I278T mice, which were at least 120D (W17) old and had visible, fully developed facial alopecia, were split into 2 groups. […] Metabolite levels were determined prior to the treatment initiation and measured during the study 24 hours after the injection, and weight and physical look were initially monitored weekly, and later bi-weekly.

[1] = Radiometric CBS activity assay of monkey plasma samples; assay type: in vivo, cynomolgus monkey
Source text: Tables 12-14 below show the comparison of C15S/ME-200GS specific activity determined by LC/MS/MS using D,L-homocysteine M+4 as a substrate and by radiometric assay using L-[…] as a substrate. The enzyme's specific activity is presented in mU/μl. The “n.d.” stands for “not determined”.

I278T mice = experiment: Eye defects (ciliary zonule) in I278T mice; assay type: in vivo, mouse; settings: 7.5 mg/kg SC 3x/week from 2 days to 4 months of age
Method: Mice were subjected to perfusion fixation with 4% paraformaldehyde in 1×PBS pH 7.4 (4% PFA) to preserve the walls of the eye globe. Eyes were carefully surgically removed, submerged into 4% PFA and a small hole was carefully made in the posterior globe of the eye right below the optic nerve to allow the fixative to permeate to the interior of the eye and fixate the structures overnight at 4° C. The samples were washed 3 times using filtered 1×PBS pH 7.4. After washing, the posterior globe of the eye was carefully dissected down to the level of the ciliary epithelium to expose the ciliary zonule. The sample was placed in 8% BSA blocking solution for 2 hours with shaking. After blocking, MAGP1 antibodies (Sigma) diluted 1:50 in 4% BSA were added to the sample and stored at 4° C. overnight. The next day, the sample was washed 6 times using 1×PBS pH 7.4, and Alexa 488 secondary antibodies (1:200, Invitrogen) were added to the sample and incubated for 2 hours at room temperature with shaking. […]
The changes in metabolite levels in plasma were measured in I278T (+/−) healthy heterozygous control mice, untreated −/− affected homozygous control mice, and 20NHS PEG-htCBS C15S-treated −/− homozygous I278T mice. […] Levels measured beginning at 72 hours after the injection as mice were on the treatment from 2 days of age.

Hcy, Cth, Cys = experiment: Plasma metabolites in I278T mice of the eye study; assay type: in vivo; settings: 7.5 mg/kg SC 3x/week
Method: The changes in metabolite levels in plasma were measured in I278T (+/−) healthy heterozygous control mice, untreated −/− affected homozygous control mice, and 20NHS PEG-htCBS C15S-treated −/− homozygous I278T mice. The 20NHS PEG-htCBS C15S (C15S/ME-200GS)-treated mice were administered 7.5 mg/kg subcutaneously (SC) 3 times per week from the age of 2 days up to the age of 4 months. Levels measured beginning at 72 hours after the injection as mice were on the treatment from 2 days of age.

20NHS PEG-htCBS C15S: htCBS C15S PEGylated with ME-200GS PEG (20 kDa linear NHS ester-activated PEG)
Hcy and Cys change vs 400MA PEG-htCBS C15S (Hcy, Cys): decrease Hcy levels and increase Cys levels more substantially
specific activity in plasma, Radiometric assay ([1]; single IV 2 mg/kg, 0.083 h): 95.741 mU/μl
specific activity in plasma, Radiometric assay ([1]; single IV 2 mg/kg, 0.167 h): 90.049 mU/μl
specific activity in plasma, Radiometric assay ([1]; single IV 2 mg/kg, 0.25 h): 88.891 mU/μl
specific activity in plasma, Radiometric assay ([1]; single IV 2 mg/kg, 0.5 h): 85.342 mU/μl
specific activity in plasma, Radiometric assay ([1]; single IV 2 mg/kg, 1 h): 80.992 mU/μl
specific activity in plasma, Radiometric assay ([1]; single IV 2 mg/kg, 2 h): 78.984 mU/μl
specific activity in plasma, Radiometric assay ([1]; single IV 2 mg/kg, 4 h): 77.809 mU/μl
specific activity in plasma, Radiometric assay ([1]; single IV 2 mg/kg, 8 h): 70.357 mU/μl
specific activity in plasma, Radiometric assay ([1]; single IV 2 mg/kg, 24 h): 55.865 mU/μl
specific activity in plasma, Radiometric assay ([1]; single IV 2 mg/kg, 72 h): 31.601 mU/μl
specific activity in plasma, Radiometric assay ([1]; single IV 2 mg/kg, 120 h): 18.908 mU/μl
specific activity in plasma, Radiometric assay ([1]; single IV 2 mg/kg, 192 h): 9.182 mU/μl
specific activity in plasma, Radiometric assay ([1]; single SC 2 mg/kg, 1 h): 2.842 mU/μl
specific activity in plasma, Radiometric assay ([1]; single SC 2 mg/kg, 2 h): 5.801 mU/μl
specific activity in plasma, Radiometric assay ([1]; single SC 2 mg/kg, 4 h): 11.207 mU/μl
specific activity in plasma, Radiometric assay ([1]; single SC 2 mg/kg, 8 h): 22.164 mU/μl
specific activity in plasma, Radiometric assay ([1]; single SC 2 mg/kg, 24 h): 40.293 mU/μl
specific activity in plasma, Radiometric assay ([1]; single SC 2 mg/kg, 48 h): 36.658 mU/μl
specific activity in plasma, Radiometric assay ([1]; single SC 2 mg/kg, 72 h): 30.670 mU/μl
specific activity in plasma, Radiometric assay ([1]; single SC 2 mg/kg, 96 h): 23.536 mU/μl
specific activity in plasma, Radiometric assay ([1]; single SC 2 mg/kg, 120 h): 18.608 mU/μl
specific activity in plasma, Radiometric assay ([1]; single SC 2 mg/kg, 192 h): 9.496 mU/μl
specific activity in plasma, Radiometric assay ([1]; single SC 2 mg/kg, 240 h): 5.963 mU/μl
specific activity in plasma, Radiometric assay ([1]; single SC 2 mg/kg, 336 h): 2.441 mU/μl
specific activity in plasma, Radiometric assay ([1]; single SC 6 mg/kg, 1 h): 3.739 mU/μl
specific activity in plasma, Radiometric assay ([1]; single SC 6 mg/kg, 2 h): 9.180 mU/μl
specific activity in plasma, Radiometric assay ([1]; single SC 6 mg/kg, 4 h): 22.263 mU/μl
specific activity in plasma, Radiometric assay ([1]; single SC 6 mg/kg, 8 h): 50.194 mU/μl
specific activity in plasma, Radiometric assay ([1]; single SC 6 mg/kg, 24 h): 111.081 mU/μl
specific activity in plasma, Radiometric assay ([1]; single SC 6 mg/kg, 48 h): 109.292 mU/μl
specific activity in plasma, Radiometric assay ([1]; single SC 6 mg/kg, 72 h): 95.722 mU/μl
specific activity in plasma, Radiometric assay ([1]; single SC 6 mg/kg, 96 h): 73.072 mU/μl
specific activity in plasma, Radiometric assay ([1]; single SC 6 mg/kg, 120 h): 56.427 mU/μl
specific activity in plasma, Radiometric assay ([1]; single SC 6 mg/kg, 192 h): 31.513 mU/μl
specific activity in plasma, Radiometric assay ([1]; single SC 6 mg/kg, 240 h): 19.203 mU/μl
specific activity in plasma, Radiometric assay ([1]; single SC 6 mg/kg, 336 h): 5.807 mU/μl
eye defects (zonular fibers) (I278T mice): positive effect on the eye defects
plasma Cth (Hcy, Cth, Cys; throughout the study): around 50 μM
plasma Cys (Hcy, Cth, Cys; throughout the study): around 230 μM
plasma Hcy (Hcy, Cth, Cys; decreased from 230 μM): about 70 μM
